Source: patent publication US10124033B2, “Peptides and methods of use” (BAXALTA INCORPORATED, priority 2014, dated 2018)
Non-standard residues stand in square brackets, D forms with d. Residues, ends and D or L forms follow the SMILES beside them. Tle = CC(C)(C)[C@H](N)C(=O)O

What was measured:
[1] = biological target: T1, Protein S/APC cofactor activity (Homo sapiens, UniProt P07225); assay: CAT assay in pooled normal plasma supplemented with 3 nM APC; type: biochemical; conditions: 6 pM TF, 15 μM phospholipids
T1 construct: host or cells: plasma
T1 sequence (P07225 41-676 limits assumed): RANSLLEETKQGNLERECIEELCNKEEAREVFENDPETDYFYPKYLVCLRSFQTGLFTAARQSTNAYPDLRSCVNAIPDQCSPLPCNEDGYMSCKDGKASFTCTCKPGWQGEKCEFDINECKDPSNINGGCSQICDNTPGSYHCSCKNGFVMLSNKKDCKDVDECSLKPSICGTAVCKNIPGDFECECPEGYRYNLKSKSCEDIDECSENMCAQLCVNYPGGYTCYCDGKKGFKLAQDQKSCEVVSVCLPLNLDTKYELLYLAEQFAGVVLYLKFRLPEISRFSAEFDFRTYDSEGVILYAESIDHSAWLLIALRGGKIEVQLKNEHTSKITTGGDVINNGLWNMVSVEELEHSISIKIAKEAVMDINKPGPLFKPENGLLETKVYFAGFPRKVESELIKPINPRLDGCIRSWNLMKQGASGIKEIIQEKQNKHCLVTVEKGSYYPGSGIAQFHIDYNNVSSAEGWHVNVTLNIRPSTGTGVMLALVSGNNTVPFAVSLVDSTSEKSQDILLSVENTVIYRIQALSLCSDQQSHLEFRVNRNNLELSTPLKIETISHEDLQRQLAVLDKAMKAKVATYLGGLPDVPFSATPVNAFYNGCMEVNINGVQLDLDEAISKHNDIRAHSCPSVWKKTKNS
Protocol: Peptides also were tested for improvement of Protein S/APC-dependent thrombin generation in hemophilic plasma using a CAT assay. Protein S enhances the anticoagulation of APC in plasma. The CAT assay quantifies the effect of Protein S on APC-mediated thrombin generation initiated via the extrinsic coagulation pathway (Nicolaes, Blood Coagul. Fibrinolysis, 8:28 (1997)). APC (35 nM) and Protein S (25 nM) was added to Protein 5-depleted plasma, and plasma samples were incubated with high titer heat inactivated anti-human FVIII plasma raised in goat (4490 BU/ml; Baxter BioScience, Vienna, Austria; 50 BU/ml final plasma concentration). Thrombin formation in plasma was followed by calibrated automated thrombography (CAT) in a Fluoroskan Ascent® reader (Thermo Labsystems, Helsinki, Finland) and quantified via the thrombin peak-height. Thrombin generation was determined at high tissue factor (TF) concentration in the absence and in the presence of APC at a concentration that reduces the peak height to 20%. The inhibitory effect of peptides described herein on the APC cofactor activity of Protein S (PS) in plasma was measured in FVIII-inhibited pooled normal plasma supplemented with APC. Complete (100%) Protein S/APC inhibition is the height of the thrombin peak without addition of APC. Lack of (0%) PS/APC inhibition correlates to the thrombin peak-height value with a certain amount of APC. Peptides were ranked by their normalized values in comparison to the mean of wild-type controls including SD at two defined peptide concentrations (EC50 and EC90). […] For the assays, pooled normal plasma was supplemented with 3 nM APC and triggered with 6 pM TF, and 15 μM phospholipids (DOPC/POPS 80/20). Stock APC was diluted with TF-PL-MIX to 24 nM (plasma concentration: 3 nM).

Protein S = biological target: T2, Protein S (Homo sapiens, UniProt P07225); assay: LANCE IC50 assay (competition TR-FRET) with tracer JBS0684; type: binding; conditions: Table 4, multiple substitutions in JBS2572; read-out: LANCE IC50
T2 sequence (P07225 41-676 limits assumed): T1 sequence (P07225 41-676 limits assumed)
Protocol: Peptides also were characterized in a competition, homogenous europium-based TR-FRET assay (LANCE IC50 assay) using JBS0684 as a tracer (i.e., competitor for Protein S binding). The following reagents were mixed together in a Perkin-Elmer ProxiPlate MTP well (indicated concentration is the final concentration): Eu-labeled Protein S (10 nM), Ulight™-labeled Streptavidin (100 nM), tracer (JBS0684 (300 nM)), and peptide (titrated in three-fold dilution steps). The final volume was 50 μl/well. The reaction mix was incubated for 1 hour at room temperature, then the fluorescence emission at 665 nm was recorded on a multi-mode reader (SpectraMax® M5, Molecular Devices) using the following instrument settings: Ex 340 nm, Em 665 nm, delay 50 μsec, integration 100 μsec, reads 100. Binding of tracer peptides to soluble europium-labeled Protein S was detected by Streptavidin labeled with an acceptor fluorophor (ULight™). Inhibition of tracer-binding to Protein S by a non-biotinylated peptide results in a decrease of TR-FRET between the Eu-labeled Protein S and ULight™-labeled Streptavidin. IC50 values were obtained from peptide titration curves at constant tracer concentration using non-linear regression of the fluorescence emission signals at 665 nm.

[2] = biological target: T3, human full-length Protein S (Homo sapiens, UniProt P07225); assay: Biacore (surface plasmon resonance) on immobilized Protein S; type: binding; conditions: Biacore, Table 3
T3 construct: using human full-length Protein S and human GAS6
T3 sequence (P07225 41-676 limits assumed): T1 sequence (P07225 41-676 limits assumed)
Protocol: (§1) Protein S affinity also was determined via Biacore (Biacore 3000 or Biacore T200) using human full-length Protein S and human GAS6. Briefly, 1000 RU of Protein S or GAS6 were immobilized on a CMS chip. In order to probe the kinetics of Protein S binding peptides to Protein S, the peptides were injected at various concentrations in a HBS-buffer containing 3 mM CaCl2 and 1% DMSO to the flow cell and allowed to interact with the immobilized proteins on the sensor chip. The chip could be regenerated with 4 M MgCl2 in HBS-buffer. Sensorgrams were fitted to a Langmuir binding model for the determination of kon and koff and the calculation of KD. Peptides were tested on their specificity to Protein S with peptide binding studies on the anti-target GAS6.

human GAS6 = biological target: T4, human GAS6 (Homo sapiens, UniProt Q14393); assay: Biacore binding to anti-target GAS6; conditions: 1 μM peptide; sensorgrams reviewed visually
T4 sequence (Q14393 31-678): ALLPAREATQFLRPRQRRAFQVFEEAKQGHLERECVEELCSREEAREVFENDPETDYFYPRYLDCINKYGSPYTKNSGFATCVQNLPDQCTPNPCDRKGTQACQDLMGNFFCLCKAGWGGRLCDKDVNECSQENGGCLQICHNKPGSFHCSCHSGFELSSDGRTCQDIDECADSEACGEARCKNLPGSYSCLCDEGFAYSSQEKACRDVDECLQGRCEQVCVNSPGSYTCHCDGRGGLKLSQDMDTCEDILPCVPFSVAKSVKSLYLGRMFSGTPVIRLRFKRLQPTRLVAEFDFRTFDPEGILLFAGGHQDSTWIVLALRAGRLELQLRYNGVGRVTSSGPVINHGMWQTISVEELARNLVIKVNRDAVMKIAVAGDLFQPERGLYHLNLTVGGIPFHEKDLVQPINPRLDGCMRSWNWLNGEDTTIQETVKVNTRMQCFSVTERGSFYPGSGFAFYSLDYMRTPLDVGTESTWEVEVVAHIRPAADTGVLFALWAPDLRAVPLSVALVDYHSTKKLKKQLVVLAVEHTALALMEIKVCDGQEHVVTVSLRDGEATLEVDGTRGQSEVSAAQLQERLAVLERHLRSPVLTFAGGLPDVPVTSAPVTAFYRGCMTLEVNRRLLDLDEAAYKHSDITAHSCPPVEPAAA
Protocol: as §1
Interactions with the anti-target GAS6 were measured via Biacore (surface plasmon resonance) (see Example 2). The maximum signal from the interaction of the peptides with human GAS6 was much lower than the signals obtained with Protein S as interaction partner. Kinetic analysis of the low GAS6 binding signals was error prone, and sensorgrams were reviewed visually to estimate anti-target binding. […] The affinity of JBS2572 for the anti-target was at least 10 times less (indeed, at least 150 times less) than the affinity of the peptides for human Protein S. The data provided by this example confirm that peptides described herein specifically bind Protein S.

[3] = plasma stability in mouse plasma; type: in vitro ADME; conditions: 37° C.
Protocol: (§2) Affinity and activity of all 18 peptides was improved compared to parent JBS2572. […] Activity and stability were improved up to 1.5-fold. Plasma stability was determined in pooled normal human plasma and mouse plasma at 37° C.; exemplary results also are provided in Table 3.

[4] = plasma stability in pooled normal human plasma; type: in vitro ADME; conditions: pooled normal human plasma, 37° C., 6 hours
Protocol: as §2

| EC50 [1] [nM] | IC50 (Protein S) [nM] | koff [2] [s⁻¹] | kon [2] [M⁻¹ s⁻¹] | binding to GAS6 (human GAS6) | Molecule | Stability in mouse plasma; 4 hours [%] [3] [%] | Stability in human plasma; 6 hours [%] [4] [%] |
| --- | --- | --- | --- | --- | --- | --- | --- |
| 155 |  |  |  |  | CC(=O)N[C@H](C(=O)NCC(=O)N[C@@H](CC(C)C)C(=O)N[C@H](C(=O)N[C@@H](CO)C(=O)N[C@@H](C)C(=O)NCC(=O)N[C@@H](Cc1c[nH]c2ccccc12)C(=O)N[C@@H](Cc1ccc(O)cc1)C(=O)N[C@@H](CC(=O)O)C(=O)N[C@@H](Cc1ccc(O)cc1)C(=O)N[C@@H](CC(N)=O)C(=O)N[C@@H](Cc1ccccc1)C(=O)N[C@@H](CC(=O)O)C(=O)N[C@H](C(=O)N[C@@H](Cc1ccc(O)cc1)C(=O)N[C@H](C(=O)N[C@@H](CCC(=O)O)C(=O)N[C@@H](Cc1ccccc1)C(=O)N[C@H](C(N)=O)[C@@H](C)O)[C@@H](C)O)[C@@H](C)O)C(C)C)[C@@H](C)O [JBS3188] (Ac-TGLVSAGWYDYNFDTYTEFT-NH2) |  |  |
| 155 | 2.2 |  |  |  | CSCC[C@H](NC(=O)[C@H](Cc1ccc(O)cc1)NC(=O)[C@H](Cc1c[nH]cn1)NC(=O)[C@H](CC(=O)O)NC(=O)[C@H](Cc1ccccc1)NC(=O)[C@H](CC(N)=O)NC(=O)[C@H](Cc1ccc(O)cc1)NC(=O)[C@H](CC(=O)O)NC(=O)[C@H](Cc1ccc(O)cc1)NC(=O)[C@H](Cc1c[nH]c2ccccc12)NC(=O)CNC(=O)[C@H](C)NC(=O)[C@H](CO)NC(=O)[C@@H](NC(=O)[C@H](CC(C)C)NC(=O)CNC(=O)[C@H](Cc1ccc(O)cc1)NC(C)=O)C(C)C)C(=O)N[C@@H](CCC(=O)O)C(=O)N[C@@H](Cc1ccccc1)C(=O)N[C@H](C(N)=O)[C@@H](C)O [JBS3196] (Ac-YGLVSAGWYDYNFDHYMEFT-NH2) |  |  |
| 127 | 1.9 |  |  |  | CSCC[C@H](NC(=O)[C@H](Cc1ccc(O)cc1)NC(=O)[C@@H](NC(=O)[C@H](CC(=O)O)NC(=O)[C@H](CC(N)=O)NC(=O)[C@H](CC(N)=O)NC(=O)[C@H](Cc1ccc(O)cc1)NC(=O)[C@H](CC(=O)O)NC(=O)[C@H](Cc1ccc(O)cc1)NC(=O)[C@H](Cc1c[nH]c2ccccc12)NC(=O)CNC(=O)[C@H](C)NC(=O)[C@H](CCC(=O)O)NC(=O)[C@@H](NC(=O)[C@H](CC(C)C)NC(=O)CNC(=O)[C@H](Cc1ccc(O)cc1)NC(C)=O)C(C)C)[C@@H](C)O)C(=O)N[C@@H](CCC(=O)O)C(=O)N[C@@H](Cc1ccccc1)C(=O)N[C@H](C(N)=O)[C@@H](C)O [JBS3201] (Ac-YGLVEAGWYDYNNDTYMEFT-NH2) |  |  |
| 127 | 1.8 |  |  |  | CSCC[C@H](NC(=O)[C@H](Cc1ccc(O)cc1)NC(=O)[C@H](Cc1c[nH]cn1)NC(=O)[C@H](CC(=O)O)NC(=O)[C@H](Cc1ccccc1)NC(=O)[C@H](CC(N)=O)NC(=O)[C@H](Cc1ccc(O)cc1)NC(=O)[C@H](CC(=O)O)NC(=O)[C@H](Cc1ccc(O)cc1)NC(=O)[C@H](Cc1c[nH]c2ccccc12)NC(=O)CNC(=O)[C@H](C)NC(=O)[C@H](CO)NC(=O)[C@@H](NC(=O)[C@H](CC(C)C)NC(=O)CNC(=O)[C@@H](NC(C)=O)[C@@H](C)O)C(C)(C)C)C(=O)N[C@@H](CCC(=O)O)C(=O)N[C@@H](Cc1ccccc1)C(=O)N[C@H](C(N)=O)[C@@H](C)O [JBS3203, Ac-TGL-Tle-SAGWYDYNFDHYMEFT-NH2] (Ac-TGL[Tle]SAGWYDYNFDHYMEFT-NH2) |  |  |
|  |  | 0.000213 | 152000 | not to interact | JBS3318: JBS3319 conjugated to 40 kD PEG moiety (Ac-EYYVSAGWYDYNTDTYYEFEC-NH2; not fully specified (residue 21)) | 102 ± 20 | 114 ± 8 |
|  |  | 0.000278 | 78000 | not to interact | JBS3322: JBS3206 monomer comprising a 40 kD PEG moiety (Ac-EYIVTAGWYDYNKDIYYEFKC-NH2; not fully specified (residue 21)) | 91 ± 26 | 131 ± 14 |
